Laboratory results as given in patent publication US20260166131A1, “METHOD FOR PROMOTING PATHOLOGICAL TDP-43 PROTEIN DEGRADATION, AND DRUG” (TALENGEN INTERNATIONAL LIMITED, priority 2022, published 2026).
“Also recorded” adds a separate entry of the source.

What was measured:
[1] = molecular target: T1, TDP-43 (Mus musculus, UniProt Q921F2); assay: TDP-43 in cytoplasm and nucleus of NSC34 cells treated with okadaic acid (Western blot); format: cell-based; set-up: host or cells: NSC34 cells; settings: okadaic acid 2.5 ng/uL 24 h, plasminogen 0.5 mg/mL 24 hours, vs vehicle group
T1 sequence (Q921F2 whole entry): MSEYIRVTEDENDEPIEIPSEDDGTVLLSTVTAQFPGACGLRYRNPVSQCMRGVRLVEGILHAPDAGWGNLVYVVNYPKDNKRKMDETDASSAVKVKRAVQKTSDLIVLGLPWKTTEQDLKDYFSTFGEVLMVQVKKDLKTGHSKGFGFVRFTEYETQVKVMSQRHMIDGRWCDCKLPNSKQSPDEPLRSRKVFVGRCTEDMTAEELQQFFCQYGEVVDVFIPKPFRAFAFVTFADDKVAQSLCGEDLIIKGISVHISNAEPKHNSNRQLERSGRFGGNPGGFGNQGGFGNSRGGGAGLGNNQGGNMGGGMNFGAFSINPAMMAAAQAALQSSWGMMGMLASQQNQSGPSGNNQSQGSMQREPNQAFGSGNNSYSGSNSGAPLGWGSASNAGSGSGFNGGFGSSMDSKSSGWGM
Procedure: 10^6 NSC34 cells (Otwo Biotech, HTX1846) were inoculated in a 9 cm^2 culture dish, and cultured in DMEM medium (Gibco, 11965092) containing 10% fetal bovine serum (EVERY GREEN, 11011-8611). The cells were placed in a carbon dioxide incubator for culture at 37.0° C. and 5% CO2. After the cells grew for 48 hours and reached about 80%-90% abundance, the medium was changed, and subsequent experiments were performed. […] After adding plasminogen for 24 hours, the cells were harvested. The culture supernatant was sucked off, washing with 1×PBS, digesting with 1 mL of 0.25% pancreatic enzyme for 2-3 minutes, then stopping digestion with 5-6 mL of DMEM complete medium when the cells were obviously detached. The cells were slowly blown, and the suspension was collected into a centrifuge tube, centrifuging at 1500 rpm for 5 min to remove the supernatant, resuspending with pre-cooled 1×PBS, and counting the cells. 200 μL of plasma protein extraction reagent (the volume of a pellet of 2×10^6 cells is about 20 μL or 40 mg) (Solarbio, R0050) was added for every 20 μL of cell pellet. The cell pellet was completely dispersed into a single-cell suspension by pipette blow or high-speed vortex for 15 seconds, then ice-bathing for 10 minutes, vortexing vigorously at maximum speed for 10 seconds and centrifuging at 12,000-16,000 g for 10 minutes at 4° C. […]

[2] = system: NSC34 cells; assay: Human plasminogen level in cytoplasm and nucleus of okadaic acid-treated NSC34 cells (ELISA); settings: plasminogen 0.5 mg/mL 24 hours, vs vehicle group
Procedure: The cells were placed in a carbon dioxide incubator for culture at 37.0° C. and 5% CO2. […] After adding plasminogen for 24 hours, the cells were harvested. […] The supernatant is the extracted cytoplasmic protein, and the supernatant is immediately sucked up into a pre-cooled sample tube for later use. The precipitate is the cell nucleus, and the remaining supernatant was completely aspirated (to avoid contamination by cytoplasmic proteins), then adding 50-100 μL of nuclear protein extraction reagent. The precipitate is completely dispersed by pipette blow or high-speed vortex for 15 seconds (can be extended appropriately), then ice-bathing for 10 minutes, vortexing vigorously at maximum speed for 10 seconds and centrifuging at 12,000-16,000 g for 10 minutes at 4° C. The supernatant was immediately sucked up by pipette into a pre-cooled sample tube; this is the extracted nuclear protein.

[3] = molecular target: T1, TDP-43; assay: Immunofluorescence co-localization staining of plasminogen and TDP-43 in spinal cord tissue of SOD1-G93A mice; format: in vivo; set-up: from tissue; host or cells: mouse spinal cord, gluteal muscle, brain, kidney cell nuclei; settings: 1 mg/mouse tail vein every day
Procedure: Five wild-type male mice and nine male SOD1-G93A mice of similar week-age were selected. Wild-type mice served as the blank control group, and SOD1-G93A mice were observed and recorded from the time of hind leg tremor when they became ill at week 14, and the onset time of each mouse was recorded. Administering to mice 14 days after the onset of the disease. All mice were randomly divided into a vehicle group and a plasminogen group according to the onset of the disease: 5 mice in the vehicle group, which were injected with 0.1 ml of vehicle (sodium citrate buffer)/mouse by tail vein every day; 4 mice in the plasminogen group, which were injected with 1 mg of plasminogen/0.1 ml of vehicle/mouse by tail vein every day. The vehicle and plasminogen were administered continuously under SPF environment, and the samples were collected at the near-death stage. The longest administration was 61 days. The spinal cord tissue collected was fixed in formalin fixative solution. The fixed tissues were dehydrated with gradient alcohol and transparentized with xylene before being embedded in paraffin. The thickness of tissue sections was 3 μm, and the sections were dewaxed and rehydrated and then washed once. The sections were immersed in antigen retrieval working solution (0.01 M sodium citrate buffer) to perform microwave retrieval: preheating for 5 minutes, high heating for 2 minutes, and low heating for 15 minutes. The tissue was circled with a PAP pen, then incubating in 3% hydrogen peroxide for 15 minutes, and washing twice with 0.01 M PBS for 5 minutes each time, blocking with 5% normal goat serum (Vector laboratories, Inc., USA) for 30 minutes. After the time for blocking is up, the goat serum is discarded, adding anti-plasminogen antibody (self-produced), then incubating at 4° C. overnight, and washing twice with 0.01M PBS for 5 minutes each time. The goat anti-rabbit IgG (HRP) antibody (Abcam) secondary antibody was added to incubate at room temperature for 1 hour, then washing twice with 0.01M PBS for 5 minutes each time. The green fluorescence color development of the corresponding anti-plasminogen secondary antibody was performed according to the instructions of the XTSA520 IHC kit (Alpha X Biotech, AXT6202500), washing 3 times with PBS for 5 minutes each time. The above antigen retrieval and blocking procedures were repeated, and then anti-TDP-43 antibody (Proteintech, 12892-1-AP) staining was performed, then incubating at 37° C. for 1 hour, washing 3 times with PBS for 5 minutes each time. […] The red fluorescence color development of the corresponding anti-TDP-43 secondary antibody was performed according to the instructions of the XTSA620 IHC kit (Alpha X Biotech, AXT6502500), washing 3 times with PBS for 5 minutes each time. […]

B1: plasminogen: human plasminogen purified from human donor plasma, in which human Lys-plasminogen and Glu-plasminogen are >98% (protein)
chain: KVYLSECKTGNGKNYRGTMSKTKNGITCQKWSSTSPHRPRFSPATHPSEGLEENYCRNPDNDPQGPWCYTTDPEKRYDYCDILECEEECMHCSGENYDGKISKTMSGLECQAWDSQSPHAHGYIPSKFPNKNLKKNYCRNPDRELRPWCFTTDPNKRWELCDIPRCTTPPPSSGPTYQCLKGTGENYRGNVAVTVSGHTCQHWSAQTPHTHNRTPENFPCKNLDENYCRNPDGKRAPWCHTTNSQVRWEYCKIPSCDSSPVSTEQLAPTAPPELTPVVQDCYHGDGQSYRGTSSTTTTGKKCQSWSSMTPHRHQKTPENYPNAGLTMNYCRNPDADKGPWCFTTDPSVRWEYCNLKKCSGTEASVVAPPPVVLLPDVETPSEEDCMFGNGKGYRGKRATTVTGTPCQDWAAQEPHRHSIFTPETNPRAGLEKNYCRNPDGDVGGPWCYTTNPRKLYDYCDVPQCAAPSFDCGKPQVEPKKCPGRVVGGCVAHPHSWPWQVSLRTRFGMHFCGGTLISPEWVLTAAHCLEKSPRPSSYKVILGAHQEVNLEPHVQEIEVSRLFLEPTRKDIALLKLSSPAVITDKVIPACLPSPNYVVADRTECFITGWGETQGTFGAGLLKEAQLPVIENKVCNRYEFLNGRVQSTELCAGHLAGGTDSCQGDSGGPLVCFEKDKYILQGVTSWGLGCARPNKPGVYVRVSRFVTWIEGVMRNN
B1 was tested, and the “level of TDP-43 in the cytoplasm” value [1] was “significantly lower; also recorded: almost significantly or significantly lower”, the “level of TDP-43 in the nucleus” value [1] was “significantly lower; also recorded: almost significantly or significantly lower” and the “level of human plasminogen in the cytoplasm” value [2] was “significantly higher”. For the same molecule, the “level of human plasminogen in the nucleus” value [2] was “significantly higher”, the “subcellular presence of plasminogen in spinal cord tissue” value [3] was “present in the cytoplasm (as indicated by A) and in the nucleus; also recorded: present in the cytoplasm (as indicated by Δ) and in the nucleus” and the “level of TDP-43 in spinal cord tissue” value ([3]; immunofluorescence, vs vehicle group) was “lower than that in the vehicle group; also recorded: lower than that of the vehicle group”. For the same molecule, the “positive staining of plasminogen in spinal cord tissue” value ([3]; up to 61 days, vs vehicle group) was “significantly more” and the “co-localization of plasminogen and TDP-43 in spinal cord tissue” value ([3]; vs vehicle group) was “more than that in the vehicle group”.
